Experiment [1] deals with pyruvate kinase isoform M2 (PKM2), endogenous in immortalized hepatocytes (human (endogenous in NeHepLxHT)) (UniProt P14618). The experiment can be described thus: glycerol density gradient centrifugation.
For experiment [2] the target is unchanged. Nature of the experiment: cross-linking; cell lysate treated with 0.1% glutaraldehyde for 20 minutes at 25°C, stopped with 50 mM Tris pH 8.0, SDS-PAGE and western blot for PKM2; control and LHBS-expressing immortalized hepatocytes, HuH-7 and HepG2 cells infected with Ad-HBV-KO or Ad-HBV-WT. (In western blotting, separated proteins are transferred to a membrane and probed.)

In general, stoichiometry N refers to a count of units in the complex or per binding partner.

Chain of pyruvate kinase isoform M2 (PKM2), endogenous in immortalized hepatocytes, P14618 1-531 (enzyme; other documents disagree on this pair) (P14618 whole entry, canonical isoform): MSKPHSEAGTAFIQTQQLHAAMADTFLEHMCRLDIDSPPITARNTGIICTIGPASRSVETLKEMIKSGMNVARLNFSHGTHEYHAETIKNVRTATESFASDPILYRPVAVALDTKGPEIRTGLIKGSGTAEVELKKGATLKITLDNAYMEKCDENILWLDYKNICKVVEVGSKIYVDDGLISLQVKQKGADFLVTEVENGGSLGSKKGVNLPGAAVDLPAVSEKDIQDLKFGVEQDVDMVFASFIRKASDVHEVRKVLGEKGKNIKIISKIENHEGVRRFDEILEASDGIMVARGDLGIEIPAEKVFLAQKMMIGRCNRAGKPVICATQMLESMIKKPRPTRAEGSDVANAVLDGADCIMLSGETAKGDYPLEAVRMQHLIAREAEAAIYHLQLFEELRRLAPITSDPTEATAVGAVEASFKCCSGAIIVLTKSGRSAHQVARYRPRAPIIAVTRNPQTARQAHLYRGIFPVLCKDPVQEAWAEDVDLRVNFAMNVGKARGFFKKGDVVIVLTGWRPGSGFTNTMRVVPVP

For “pyruvate kinase isoform M2 (PKM2), endogenous in immortalized hepatocytes, P14618 1-531 (enzyme; other documents disagree on this pair)”, the stoichiometry N in experiment [1] and in experiment [2] was 2 each time.

The values above are taken from paper PMC8009439.
